Measured values as given in patent US20110263454A1, “Methods of Identifying Functional Characteristics of Promoters, Transcription Modifying Proteins and Transcription Modulating Agents” (Salk Institute for Biological Studies, priority 2008, published 2011).

B1: RORg: RAR-related Orphan Receptor γ (NR1F3), cDNA driver (protein, UniProt P51449 1-518, looked up)
Nuclear receptor ROR-gamma: MDRAPQRQHRASRELLAAKKTHTSQIEVIPCKICGDKSSGIHYGVITCEGCKGFFRRSQRCNAAYSCTRQQNCPIDRTSRNRCQHCRLQKCLALGMSRDAVKFGRMSKKQRDSLHAEVQKQLQQRQQQQQEPVVKTPPAGAQGADTLTYTLGLPDGQLPLGSSPDLPEASACPPGLLKASGSGPSYSNNLAKAGLNGASCHLEYSPERGKAEGRESFYSTGSQLTPDRCGLRFEEHRHPGLGELGQGPDSYGSPSFRSTPEAPYASLTEIEHLVQSVCKSYRETCQLRLEDLLRQRSNIFSREEVTGYQRKSMWEMWERCAHHLTEAIQYVVEFAKRLSGFMELCQNDQIVLLKAGAMEVVLVRMCRAYNADNRTVFFEGKYGGMELFRALGCSELISSIFDFSHSLSALHFSEDEIALYTALVLINAHRPGLQEKRKVEQLQYNLELAFHHHLCKTHRQSILAKLPPKGKLRSLCSQHVERLQIFQHLHPIVVQAAFPPLYKELFSTETESPVGLSK
B2: RVRa: Rev-Erb α (NR1D1), cDNA driver (protein, UniProt P20393 1-614, looked up)
Nuclear receptor subfamily 1 …: MTTLDSNNNTGGVITYIGSSGSSPSRTSPESLYSDNSNGSFQSLTQGCPTYFPPSPTGSLTQDPARSFGSIPPSLSDDGSPSSSSSSSSSSSSFYNGSPPGSLQVAMEDSSRVSPSKSTSNITKLNGMVLLCKVCGDVASGFHYGVHACEGCKGFFRRSIQQNIQYKRCLKNENCSIVRINRNRCQQCRFKKCLSVGMSRDAVRFGRIPKREKQRMLAEMQSAMNLANNQLSSQCPLETSPTQHPTPGPMGPSPPPAPVPSPLVGFSQFPQQLTPPRSPSPEPTVEDVISQVARAHREIFTYAHDKLGSSPGNFNANHASGSPPATTPHRWENQGCPPAPNDNNTLAAQRHNEALNGLRQAPSSYPPTWPPGPAHHSCHQSNSNGHRLCPTHVYAAPEGKAPANSPRQGNSKNVLLACPMNMYPHGRSGRTVQEIWEDFSMSFTPAVREVVEFAKHIPGFRDLSQHDQVTLLKAGTFEVLMVRFASLFNVKDQTVMFLSRTTYSLQELGAMGMGDLLSAMFDFSEKLNSLALTEEELGLFTAVVLVSADRSGMENSASVEQLQETLLRALRALVLKNRPLETSRFTKLLLKLPDLRTLNNMHSEKLLSFRVDAQ
B3: RVRb: Rev-Erb β (NR1D2, alternative name RVR), cDNA driver (protein, UniProt Q14995 1-579, looked up)
Nuclear receptor subfamily 1 …: MEVNAGGVIAYISSSSSASSPASCHSEGSENSFQSSSSSVPSSPNSSNSDTNGNPKNGDLANIEGILKNDRIDCSMKTSKSSAPGMTKSHSGVTKFSGMVLLCKVCGDVASGFHYGVHACEGCKGFFRRSIQQNIQYKKCLKNENCSIMRMNRNRCQQCRFKKCLSVGMSRDAVRFGRIPKREKQRMLIEMQSAMKTMMNSQFSGHLQNDTLVEHHEQTALPAQEQLRPKPQLEQENIKSSSPPSSDFAKEEVIGMVTRAHKDTFMYNQEQQENSAESMQPQRGERIPKNMEQYNLNHDHCGNGLSSHFPCSESQQHLNGQFKGRNIMHYPNGHAICIANGHCMNFSNAYTQRVCDRVPIDGFSQNENKNSYLCNTGGRMHLVCPMSKSPYVDPHKSGHEIWEEFSMSFTPAVKEVVEFAKRIPGFRDLSQHDQVNLLKAGTFEVLMVRFASLFDAKERTVTFLSGKKYSVDDLHSMGAGDLLNSMFEFSEKLNALQLSDEEMSLFTAVVLVSADRSGIENVNSVEALQETLIRALRTLIMKNHPNEASIFTKLLLKLPDLRSLNNMHSEELLAFKVHP
B4: RARa: Retinoic acid receptor α (NR1B1), nuclear hormone receptor cDNA driver (protein, UniProt P10276 1-462, looked up)
Retinoic acid receptor alpha: MASNSSSCPTPGGGHLNGYPVPPYAFFFPPMLGGLSPPGALTTLQHQLPVSGYSTPSPATIETQSSSSEEIVPSPPSPPPLPRIYKPCFVCQDKSSGYHYGVSACEGCKGFFRRSIQKNMVYTCHRDKNCIINKVTRNRCQYCRLQKCFEVGMSKESVRNDRNKKKKEVPKPECSESYTLTPEVGELIEKVRKAHQETFPALCQLGKYTTNNSSEQRVSLDIDLWDKFSELSTKCIIKTVEFAKQLPGFTTLTIADQITLLKAACLDILILRICTRYTPEQDTMTFSDGLTLNRTQMHNAGFGPLTDLVFAFANQLLPLEMDDAETGLLSAICLICGDRQDLEQPDRVDMLQEPLLEALKVYVRKRRPSRPHMFPKMLMKITDLRSISAKGAERVITLKMEIPGSMPPLIQEMLENSEGLDTLSGQPGGGGRDGGGLAPPPGSCSPSLSPSSNRSSPATHSP

What follows are molecules tested on MCP-1 promoter (assay: NHR-promoter luciferase screen, MCP-1 promoter). Details: MCP-1 promoter reporter; HR without or with its ligand; relative to control.
Format: cell-based
Protocol: (§1) The use, feasibility, and reproducibility of the functional NHR-promoter screen in a 48-well format have been tested validated. Briefly, there were co-expressed 50 ng of each NHR/NHR homodimer or NHR/RXR heterodimer with 100 ng promoter/luciferase construct and 50 ng of LacZ (as a control for transfection efficiency) in CV-1 cells using Fugene HD (Roche) as a transfection reagent (alternatively or additionally, a CMV-YFP construct can be used as a transfection control). Each of the nuclear hormone receptors that were used in these experiments was cloned into a pcDNA3.1 vector and comprised a C-terminally linked V5H6 tag. Twenty-four hours after transfection, appropriate ligands were added, where applicable, (see Table 5 for various ligands and concentrations and after 48 hrs, samples were assayed for luciferase and LacZ activity. To measure for luciferase activity 15 ul of sample was added to 30 ul of luciferase buffer (20 mM tricine, 1.07 mM MgCarbonate, 2.67 mM MgSulfate, 0.1 mM Naz-EDTA, 5 mM DTT, 5 mM ATP, 0.15 mg/ml CoA, 0.5 mM Luciferin), mixed briefly, and run in a Perkin Elmer Victor 5 luminometer. Thus, the functional NHR-promoter screen was used to observe the transcriptional activity of 29 promoters from various physiological pathways including inflammation, lipid and sugar metabolism, cholesterol transport, xenobiotic metabolism, and circadian rhythm.
(§2) The promoters that facilitate transcription of the indicated gene products that were tested using the protocols described herein are listed in the first row of the table. The nuclear hormone receptors and, where applicable, ligands that were assayed for their transcriptional effects on the promoters are listed in the first column of the table. The data represent the luciferase activity of each sample normalized to both the lacZ activity of that sample and to a control, e.g., no NHR or ligand, as customary in the art. As described previously, these normalizations allow the transcriptional activity of each reporter cell to be compared to other samples.
(§3) Tables 7-40 show the transcriptional effects of the hormone receptors, and, where applicable, ligands (orphan receptors are screened without ligand), on each individual promoter. […] The control data of each table are shown in their last rows.

Row | Molecule | Normalized Luc. act., normalized to control
1 | B1 | 2.8
2 | B2 | 1.4
3 | B3 | 1.6
4 | B4 | 1.7

Same assay, conditions: MCP-1 promoter reporter; hormone receptor (HR) without or with its ligand

Row | Molecule | Luc. act., normalized to lacZ
5 | B1 | 301.2
6 | B2 | 149.4
7 | B3 | 170.4
8 | B4 | 182.3

Same assay, conditions: transcription factor +/- ligand; control = 1.00

Row | Molecule | mMCP-1 promoter reporter activity
9 | B1 | 2.81
10 | B2 | 1.40
11 | B3 | 1.59
12 | B4 | 1.70

Each molecule was assayed on mPer1 promoter (assay: NHR-promoter luciferase screen, mPer1 promoter). Details: Per1 promoter reporter; co-transfected HR, with or without its ligand.
Format: cell-based, mouse
Protocol: as §1, §2, §3

Row | Molecule | Luc. act., normalized to lacZ
13 | B1 | 176.3
14 | B2 | 98.6
15 | B3 | 118.3
16 | B4 | 85.4

Same assay, conditions: Per1 promoter reporter; co-transfected HR, with or without its ligand; relative to control

Row | Molecule | Normalized Luc. act., normalized to control
17 | B1 | 1.2
18 | B2 | 0.7
19 | B3 | 0.8
20 | B4 | 0.6

Same assay, conditions: mPer1 promoter-luciferase, CV-1 cells, NHR +/- ligand, control = 1.00

Row | Molecule | luciferase activity normalized to lacZ activity and to a control, mPer1
21 | B1 | 1.22
22 | B2 | 0.68
23 | B3 | 0.82
24 | B4 | 0.59

What follows are molecules tested on mUCP2 promoter (assay: NHR-promoter luciferase screen, mUCP2 promoter). Details: mUCP2 promoter reporter; co-transfected HR, with or without its ligand.
Format: cell-based, mouse
Protocol: as §1, §2, §3

Row | Molecule | Luc. act., normalized to lacZ
25 | B1 | 169.5
26 | B2 | 143.0
27 | B3 | 174.4
28 | B4 | 232.0

Same assay, conditions: mUCP2 promoter reporter; co-transfected HR, with or without its ligand; relative to control

Row | Molecule | Normalized Luc. act., normalized to control
29 | B1 | 1.5
30 | B2 | 1.3
31 | B3 | 1.6
32 | B4 | 2.1

Same assay, conditions: mUCP2 promoter-luciferase, CV-1 cells, NHR +/- ligand, control = 1.00

Row | Molecule | luciferase activity normalized to lacZ activity and to a control, mUCP2
33 | B1 | 1.54
34 | B2 | 1.30
35 | B3 | 1.59
36 | B4 | 2.11

Each molecule was assayed on hPPARg1 promoter (assay: NHR-promoter luciferase screen, hPPARg1 promoter). Details: PPARG1 promoter; hormone receptor with or without its ligand.
Format: cell-based, human
Protocol: as §1, §2, §3

Row | Molecule | Luc. act., normalized to lacZ
37 | B1 | 81.5
38 | B2 | 45.9
39 | B3 | 55.5
40 | B4 | 86.6

Same assay, conditions: PPARG1 promoter; hormone receptor with or without its ligand; relative to control

Row | Molecule | Normalized Luc. act., normalized to control
41 | B1 | 1.2
42 | B2 | 0.7
43 | B3 | 0.8
44 | B4 | 1.3

Same assay, conditions: Table 6d; luciferase activity relative to control (control = 1.00)

Row | Molecule | Results of assays of transcription factor (+/- ligand) with hPPARg1
45 | B1 | 1.18
46 | B2 | 0.67
47 | B3 | 0.81
48 | B4 | 1.26

The molecules below were run on hCYP3A4 promoter (assay: NHR-promoter luciferase screen, hCYP3A4 promoter). Details: CYP3A4 promoter; HR/ligand component.
Format: cell-based, human
Protocol: Briefly, there were co-expressed 50 ng of each NHR/NHR homodimer or NHR/RXR heterodimer with 100 ng promoter/luciferase construct and 50 ng of LacZ (as a control for transfection efficiency) in CV-1 cells using Fugene HD (Roche) as a transfection reagent (alternatively or additionally, a CMV-YFP construct can be used as a transfection control). Each of the nuclear hormone receptors that were used in these experiments was cloned into a pcDNA3.1 vector and comprised a C-terminally linked V5H6 tag.
as §2, §3

Row | Molecule | Luc. act., normalized to lacZ | Normalized Luc. act., normalized to control
49 | B1 | 3.4 | 0.8
50 | B2 | 2.2 | 0.5
51 | B3 | 4.5 | 1.0
52 | B4 | 4.2 | 0.9

Same assay, conditions: transcription factor +/- ligand; control = 1.00

Row | Molecule | hCYP3A4 promoter reporter activity
53 | B1 | 0.76
54 | B2 | 0.50
55 | B3 | 1.01
56 | B4 | 0.94

What follows are molecules tested on hMyoD promoter (assay: NHR-promoter luciferase screen, hMyoD promoter). Details: MyoD promoter reporter; co-transfected HR, without or with its ligand.
Format: cell-based, human
Protocol: as §1, §2, §3

Row | Molecule | Luc. act., normalized to lacZ
57 | B1 | 86.5
58 | B2 | 75.0
59 | B3 | 80.9
60 | B4 | 99.3

Same assay, conditions: MyoD promoter reporter; co-transfected HR, without or with its ligand; relative to control

Row | Molecule | Normalized Luc. act., normalized to control
61 | B1 | 1.4
62 | B2 | 1.2
63 | B3 | 1.3
64 | B4 | 1.6

Same assay, conditions: hMyoD promoter-luciferase, CV-1 cells, NHR +/- ligand, control = 1.00

Row | Molecule | luciferase activity normalized to lacZ activity and to a control, hMyoD
65 | B1 | 1.36
66 | B2 | 1.18
67 | B3 | 1.28
68 | B4 | 1.57
